The numbers were not newly measured in publication PMC10173724, which cites them from elsewhere.

In this data set the target is FABP3 (Homo sapiens) (UniProt P05413).

Usually Kd stands for the free concentration of one partner at which half of the binding sites on the other are occupied at equilibrium, for simple one-to-one binding. With “alpha-synuclein C-terminal peptide Y133F/Y136F 130-140 (from UniProt P37840)”, the Kd was 2.1 nM.
